Results published in paper PMC8571087, “Sphingadienine-1-phosphate levels are regulated by a novel glycoside hydrolase family 1 glucocerebrosidase widely distributed in seed plants” (The Journal of Biological Chemistry, 2021).

Assays:
[1] = substrate: O=[N+]([O-])c1ccc(O[C@@H]2O[C@H](CO)[C@@H](O)[C@H](O)[C@H]2O)cc1; assay: purified protein; conditions: Buffer J pH 5.5 (sodium acetate, sodium cholate, 0.1% Tween 20), 37 °C, 15 min
[2] = substrate: CCCCCCCCC/C=C/CC/C=C/[C@@H](O)[C@H](CO[C@@H]1O[C@H](CO)[C@@H](O)[C@H](O)[C@H]1O)NC(=O)[C@H](O)CCCCCCCCCCCCCC; assay: ceramide release by LC-ESI-MS/MS, Hanes-Woolf plot; type: biochemical, Oryza sativa; conditions: Buffer J pH 5.5 (sodium acetate, sodium cholate, 0.1% Tween 20), 37 °C, 15 min
Excerpt: (§1) ceramide release by LC-ESI-MS/MS, Hanes-Woolf plot on Os3BGlu6 (GCase purified from rice leaves)

[3] = substrate: CCCCCCCCC/C=C\CC/C=C/[C@@H](O)[C@H](CO[C@@H]1O[C@H](CO)[C@@H](O)[C@H](O)[C@H]1O)NC(=O)[C@H](O)CCCCCCCCCCCCCC; assay: ceramide release by LC-ESI-MS/MS, Hanes-Woolf plot; type: biochemical, Oryza sativa; conditions: Buffer J pH 5.5 (sodium acetate, sodium cholate, 0.1% Tween 20), 37 °C, 15 min
Excerpt: as §1

[4] = substrate: CCCCCCCCCCCC/C=C/[C@@H](O)C(=O)N[C@@H](CO[C@@H]1O[C@H](CO)[C@@H](O)[C@H](O)[C@H]1O)[C@H](O)/C=C/CC/C=C(\C)CCCCCCCCC; assay: ceramide release by HPLC, Hanes-Woolf plot; type: biochemical, Oryza sativa; conditions: Buffer J pH 5.5 (sodium acetate, sodium cholate, 0.1% Tween 20), 37 °C, 15 min
Excerpt: (§2) ceramide release by HPLC, Hanes-Woolf plot on Os3BGlu6 (GCase purified from rice leaves)

[5] = substrate: CCCCCCCCCCCCC/C=C/[C@@H](O)[C@H](CO[C@@H]1O[C@H](CO)[C@@H](O)[C@H](O)[C@H]1O)NC(=O)CCCCCCC; assay: ceramide release by HPLC, Hanes-Woolf plot; type: biochemical, Oryza sativa; conditions: Buffer J pH 5.5 (sodium acetate, sodium cholate, 0.1% Tween 20), 37 °C, 15 min
Excerpt: as §2

[6] = substrate: CCCCCCCCCCCCC/C=C/[C@@H](O)[C@H](CO[C@@H]1O[C@H](CO)[C@@H](O)[C@H](O)[C@H]1O)NC(=O)CCCCCCCCCCC; assay: ceramide release by HPLC, Hanes-Woolf plot; type: biochemical, Oryza sativa; conditions: Buffer J pH 5.5 (sodium acetate, sodium cholate, 0.1% Tween 20), 37 °C, 15 min
Excerpt: as §2

[7] = substrate: CCCCCCCCCCCCC/C=C/[C@@H](O)[C@H](CO[C@@H]1O[C@H](CO)[C@@H](O)[C@H](O)[C@H]1O)NC(=O)CCCCCNc1ccc([N+](=O)[O-])c2nonc12; assay: hydrolysis, Hanes-Woolf plot; type: biochemical, Oryza sativa; conditions: Buffer J pH 5.5 (sodium acetate, sodium cholate, 0.1% Tween 20), 37 °C, 15 min, labelled compound (NBD)

B1: Os3BGlu6 (GCase purified from rice leaves) (Oryza sativa Japonica Group) (protein)
chain: QQSGGGLTRGSFPEGFVFGTASAAYQYEGAVKEDGRGQTIWDTFAHTFGKITDFSNADVAVDQYHRFEEDIQLMADMGMDAYRFSIAWSRIYPNGVGQVNQAGIDHYNKLIDALLAKGIQPYVTLYHWDLPQALEDKYKGWLDRQIVDDFAAYAETCFREFGDRVKHWITLNEPHTVAIQGYDAGLQAPGRCSVLLHLYCKAGNSGTEPYVVAHHFILAHAAAASIYRTKYKATQNGQLGIAFDVMWFEPMSNTTIDIEAAKRAQEFQLGWFADPFFFGDYPATMRARVGERLPRFTADEAAVVKGALDFVGINHYTTYYTRHNNTNIIGTLLNNTLADTGTVSLPFKNGKPIGDRANSIWLYIVPRGMRSLMNYVKERYNSPPVYITENGMDDSNNPFISIKDALKDSKRIKYHNDYLTNLAASIKEDGCDVRGYFAWSLLDNWEWAAGYSSRFGLYFVDYKDNLKRYPKNSVQWFKALLKT
- Km [1]: 3.8253 ± 0.2012 mM
- kcat [1]: 285 s⁻¹
- kcat/Km [1]: 75000 M⁻¹ s⁻¹
- Km [2]: 50.0 ± 2.4 µM
- kcat [2]: 146 ± 4.7 s⁻¹
- kcat/Km [2]: 2.92e+06 ± 50000 M⁻¹ s⁻¹
- Km [3]: 19.8 ± 0.8 µM
- kcat [3]: 116 ± 2.9 s⁻¹
- kcat/Km [3]: 5.85e+06 ± 190000 M⁻¹ s⁻¹
- Km [4]: 41.1 ± 4.3 µM
- kcat [4]: 151 ± 9.1 s⁻¹
- kcat/Km [4]: 3.7e+06 ± 280000 M⁻¹ s⁻¹
- Km [5]: 47.5 ± 3.8 µM
- kcat [5]: 156 ± 8.6 s⁻¹
- kcat/Km [5]: 3.29e+06 ± 150000 M⁻¹ s⁻¹
- Km [6]: 46.1 ± 5.1 µM
- kcat [6]: 121 ± 4.4 s⁻¹
- kcat/Km [6]: 2.64e+06 ± 190000 M⁻¹ s⁻¹
- Km [7]: 57.1 ± 7.9 µM
- kcat [7]: 112 ± 11.8 s⁻¹
- kcat/Km [7]: 1.97e+06 ± 120000 M⁻¹ s⁻¹
